# Experimental data taken from patent publication US11827699 (dated 2023).
# Substitutions are numbered along the chain they refer to.
# B1: IL6R-BP489 (antibody)
# chain 1: QVQLQESGPGLVKPSETLSLTCAVSGHSISHDHAWSWVRQPPGEGLEWIGFISYSGITNYNPSLQGRVTISRDNSKNTLYLQMNSLRAEDTAVYYCARSLARTTAMDYWGEGTLVTVSSASTKGPSVFPLAPSSKSTSGGTAALGCLVKDYFPEPVTVSWNSGALTSGVHTFPAVLQSSGLYSLSSVVTVPSSSLGTQTYICNVNHKPSNTKVDKKVEPKSCDKTHTCPPCPAPDLLGDDSVFLFPPKPKDTLMISRTPEVTCVVIDVAEEDGEVKFNWYVDGVEVHNAKTKPREEQDNSTYRVVSVLTVLHQDWLNGKEYKCKVSNKALPRPIEKTISKAKGQPREPQVYTLPPSRDELTKNQVSLTCLVKGFYPSDIAVEWESNGQPENNYKTTPMVLDSDGSFFLYSKLTVDKSRWQQGNVFSCSVMHEALHNHYTQESLSLSP
# chain 2: not shown
# B2: IL6R-BP269 (antibody)
# chain 1: B1 chain 1 with D235E, I266V, A269S, R332A, M398P
# chain 2: not shown
# B3: IL6R-BP494 (antibody)
# chain 1: B1 chain 1 with D235E, I266V, M398P
# chain 2: not shown
# B4: IL6R-BP484 (antibody)
# chain 1: B1 chain 1 with I266V, E271D, D298Y, R332A, M398P
# chain 2: not shown
# B5: IL6R-BP487 (antibody)
# chain 1: B1 chain 1 with D298Y
# chain 2: not shown
# B6: IL6R-BP488 (antibody)
# chain 1: B1 chain 1 with M398P
# chain 2: not shown
# B7: IL6R-BP509 (antibody)
# chain 1: B1 chain 1 with E274D, R332A, M398P
# chain 2: not shown
# B8: IL6R-BP511 (antibody)
# chain 1: B1 chain 1 with D235E, E274P, M398P
# chain 2: not shown
# B9: IL6R-BP490 (antibody)
# chain 1: B1 chain 1 with D235E, D298Y, M398P
# chain 2: not shown
# B10: IL6R-BP500 (antibody)
# chain 1: B1 chain 1 with D235E, R332A, M398P
# chain 2: not shown
# B11: IL6R-BP264 (antibody)
# chain 1: B1 chain 1 with I266V, A269S, M398P
# chain 2: not shown
# B12: IL6R-BP445 (antibody)
# chain 1: B1 chain 1 with D298Y, M398P
# chain 2: not shown
# B13: IL6R-BP504 (antibody)
# chain 1: B1 chain 1 with E274P, D298Y, R332A, M398P
# chain 2: not shown
# B14: IL6R-BP483 (antibody)
# chain 1: B1 chain 1 with I266V, V268L, D298Y, R332A, M398P
# chain 2: not shown
# B15: IL6R-BP505 (antibody)
# chain 1: B1 chain 1 with E274D, D298Y, R332A, M398P
# chain 2: not shown
# B16: IL6R-BP491 (antibody)
# chain 1: B1 chain 1 with D235E, M398P
# chain 2: not shown
# B17: IL6R-BP262 (antibody)
# chain 1: B1 chain 1 with D235E, I266V, A269S, D298Y, R332A, M398P
# chain 2: not shown
# B18: IL6R-BP506 (antibody)
# chain 1: B1 chain 1 with E274P, M398P
# chain 2: not shown
# B19: IL6R-BP499 (antibody)
# chain 1: B1 chain 1 with M398L
# chain 2: not shown
# B20: IL6R-BP498 (antibody)
# chain 1: B1 chain 1 with D298Y, M398L
# chain 2: not shown
# B21: IL6R-BP508 (antibody)
# chain 1: B1 chain 1 with E274P, R332A, M398P
# chain 2: not shown
# B22: IL6R-BP503 (antibody)
# chain 1: B1 chain 1 with A329G
# chain 2: not shown
# B23: IL6R-BP479 (antibody)
# chain 1: B1 chain 1 with V268L, D298Y, R332A, M398P
# chain 2: not shown
# B24: IL6R-BP492 (antibody)
# chain 1: B1 chain 1 with D235E, D239G, D298Y, R332A, M398P
# chain 2: not shown
# B25: IL6R-BP268 (antibody)
# chain 1: B1 chain 1 with I266V, A269S, R332A, M398P
# chain 2: not shown
# B26: IL6R-BP481 (antibody)
# chain 1: B1 chain 1 with D298Y, R332A, M398P
# chain 2: not shown
# B27: IL6R-BP496 (antibody)
# chain 1: B1 chain 1 with R332A, M398P
# chain 2: not shown
# B28: IL6R-BP507 (antibody)
# chain 1: B1 chain 1 with E274P, D298Y, M398P
# chain 2: not shown
# B29: IL6R-BP502 (antibody)
# chain 1: B1 chain 1 with A329G, M398P
# chain 2: not shown
# B30: IL6R-BP480 (antibody)
# chain 1: B1 chain 1 with I266V, V268L, A269S, E271D, D298Y, R332A, M398P
# chain 2: not shown
# B31: IL6R-BP438 (antibody)
# chain 1: B1 chain 1 with I266V, D298Y, I334T, M398P
# chain 2: not shown
# B32: IL6R-BP428 (antibody)
# chain 1: B1 chain 1 with I266V, A269G, D298Y, M398P
# chain 2: not shown
# Target: T1, human FcγRIa (human, UniProt P12314)
# T1 chain: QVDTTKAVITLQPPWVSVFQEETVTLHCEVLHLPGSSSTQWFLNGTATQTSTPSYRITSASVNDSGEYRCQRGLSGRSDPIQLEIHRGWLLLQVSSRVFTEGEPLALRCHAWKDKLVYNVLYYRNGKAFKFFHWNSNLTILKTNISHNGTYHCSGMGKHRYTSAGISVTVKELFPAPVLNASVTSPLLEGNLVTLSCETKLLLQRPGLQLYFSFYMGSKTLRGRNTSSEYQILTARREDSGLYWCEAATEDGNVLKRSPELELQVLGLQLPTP
# Assay: SPR
row,Kd [nM],Binder
1,1.3,B1
2,14,B2
3,3.9,B3
4,0.82,B4
5,1.2,B5
6,2.2,B6
7,1.1,B7
8,6,B8
9,4.5,B9
10,2.3,B10
11,7.4,B11
12,2,B12
13,1.4,B13
14,1.3,B14
15,1.1,B15
16,5.3,B16
17,10,B17
18,3.1,B18
19,1.2,B19
20,1.3,B20
21,1.4,B21
22,1.2,B22
23,5.3,B23
24,0.79,B24
25,4.5,B25
26,1,B26
27,1.2,B27
28,2.6,B28
29,2.1,B29

# Target: T2, human FcγRIIa R131 (human, UniProt P12318)
# T2 chain: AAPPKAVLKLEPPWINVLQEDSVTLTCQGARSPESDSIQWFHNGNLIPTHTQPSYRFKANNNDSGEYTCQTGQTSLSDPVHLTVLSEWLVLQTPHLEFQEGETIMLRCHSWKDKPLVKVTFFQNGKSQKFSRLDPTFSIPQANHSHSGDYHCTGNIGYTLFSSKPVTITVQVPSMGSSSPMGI
# Assay: SPR
row,Kd [nM],Binder
1,43,B1
2,2200,B2
3,250,B3
4,6300,B30
5,780,B4
6,39,B5
7,74,B6
8,520,B7
9,180,B8
10,110,B9
11,720,B10
12,350,B11
13,80,B12
14,450,B13
15,1300,B14
16,430,B15

row,Kd [nM],Binder
1,120,B16
2,2000,B17
3,120,B18
4,49,B19
5,51,B20
6,180,B31
7,390,B32
8,540,B21
9,57,B22
10,900,B23
11,920,B24
12,400,B26
13,470,B27
14,100,B28
15,110,B29

# Target: T3, human FcγRIIa H131 (human, UniProt P12318)
# T3 chain: T2 chain with R132H
# Assay: SPR
row,Kd [nM],Binder
1,870,B1
2,72000,B2
3,5400,B3
4,21000,B30
5,11000,B4
6,840,B5
7,1600,B6
8,7900,B7
9,4300,B8
10,25000,B10
11,2800,B11
12,16000,B13
13,18000,B14
14,11000,B15
15,2200,B16
16,45000,B17
17,1000,B19
18,930,B20
19,1600,B31
20,32000,B32
21,20000,B21
22,860,B22
23,15000,B23
24,16000,B24
25,21000,B25
26,6800,B26
27,3700,B27
28,1300,B29

# Target: human FcγRIIIa V158 (human, UniProt P08637)
# Assay: SPR
# Sequence of human FcγRIIIa V158 (P08637 17-208 F176V): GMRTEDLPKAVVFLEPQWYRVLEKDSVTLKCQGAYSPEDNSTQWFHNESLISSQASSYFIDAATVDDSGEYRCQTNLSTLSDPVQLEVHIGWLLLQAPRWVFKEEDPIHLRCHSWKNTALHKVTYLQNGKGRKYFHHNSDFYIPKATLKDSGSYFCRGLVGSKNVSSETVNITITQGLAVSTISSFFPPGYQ
row,Kd [nM],Binder
1,12000,B1
2,140000,B2
3,40000,B3
4,46000,B30
5,25000,B4
6,10000,B5
7,20000,B6
8,23000,B7
9,71000,B8
10,23000,B9
11,39000,B10
12,26000,B11
13,24000,B12
14,34000,B13
15,25000,B14
16,38000,B15
17,21000,B16
18,56000,B17
19,55000,B18
20,12000,B19
21,10000,B20
22,61000,B21
23,21000,B22
24,40000,B23
25,36000,B24
26,28000,B25
27,24000,B26
28,30000,B27
29,26000,B28
30,24000,B29

# Target: T4, human FcγRIIb (human, UniProt P31994)
# T4 chain: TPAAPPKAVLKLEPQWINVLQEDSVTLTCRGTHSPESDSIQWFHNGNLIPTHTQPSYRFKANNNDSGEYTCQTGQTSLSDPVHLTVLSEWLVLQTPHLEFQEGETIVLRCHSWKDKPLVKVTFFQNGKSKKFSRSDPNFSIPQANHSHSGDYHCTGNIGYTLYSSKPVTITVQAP
# Assay: SPR
row,Kd [nM],Binder
1,1,B1
2,110,B2
3,6.6,B3
4,200,B30
5,46,B4
6,1.2,B5
7,1.9,B6
8,18,B7
9,3.5,B8
10,2.4,B9
11,24,B10
12,2.6,B12
13,24,B13
14,78,B14
15,21,B15
16,3,B16
17,120,B17
18,3.4,B18
19,1.5,B19
20,1.7,B20
21,21,B21
22,1.7,B22
23,56,B23
24,24,B24
25,92,B25
26,19,B26
27,18,B27
28,2.9,B28
29,3.7,B29
